Measurements from CN114989305A (BEIJING WISDOMAB BIOTECHNOLOGY CO LTD, dated 2022).

B1: BsAb7 (bispecific antibody)
chain 1: QVQLVESGGGVVQPGGSLRLSCAASGFVLRVNTVSWYRQAPGKQRELVALITSESNEYYDDSVKGRFTISRDNAKNTIYLHMNSLKPEDTGVYFCNFITTWGQGTQVTVSSGGGGSGGGGSGGGGSQVQLVESGGGVVQPGGSLRLSCAASGFVLRVNTVSWYRQAPGKQRELVALITSESNEYYDDSVKGRFTISRDNAKNTIYLHMNSLKPEDTGVYFCNFITTWGQGTQVTVSSDKTHTCPPCPAPESTRGPSVFLFPPKPKDTLMISRTPEVTCVVVDVSHEDPEVKFNWYVDGVEVHNAKTKPREEQYNSTYRVVSVLTVLHQDWLNGKEYKCKVSNKALPAPIEKTISKAKGQPREPQVCTLPPSRDELTKNQVSLSCAVKGFYPSDIAVEWESNGQPENNYKTTPPVLDSDGSFFLVSKLTVDKSRWQQGNVFSCSVMHEALHNHYTQKSLSLSPGK
chain 2: EVQLVESGGGLVQPGRSLRLSCAASGFTFNTYAMNWVRQAPGKGLEWVARIRSKYNNYATYYADSVKDRFTISRDDSKSIAYLQMNSLKTEDTAVYYCVRHGNFGNSYVSWFAYWGQGTLVTVSSASTKGPSVFPLAPSSKSTSGGTAALGCLVKDYFPEPVTVSWNSGALTSGVHTFPAVLQSSGLYSLSSVVTVPSSSLGTQTYICNVNHKPSNTKVDKKVEPKSCDKTHTCPPCPAPESTRGPSVFLFPPKPKDTLMISRTPEVTCVVVDVSHEDPEVKFNWYVDGVEVHNAKTKPREEQYNSTYRVVSVLTVLHQDWLNGKEYKCKVSNKALPAPIEKTISKAKGQPREPQVYTLPPCRDELTKNQVSLWCLVKGFYPSDIAVEWESNGQPENNYKTTPPVLDSDGSFFLYSKLTVDKSRWQQGNVFSCSVMHEALHNHYTQKSLSLSPGK
chain 3: QTVVTQEPSLTVSPGGTVTLTCRSSTGAVTTSNYANWVQQKPGQAPRGLIGGTNKRAPGVPARFSGSLLGGKAALTLSGVQPEDEAEYFCALWYSNLWVFGGGTKLTVLGQPKAAPSVTLFPPSSEELQANKATLVCLISDFYPGAVTVAWKADSSPVKAGVETTTPSKQSNNKYAASSYLSLTPEQWKSHRSYSCQVTHEGSTVEKTVAPTECS
B2: BsAb8 (bispecific antibody)
chain 1: EVQLVESGGGLVQPGGSLRLSCAASGRSFSSFQMGWFRQAPGKEREFVAASGWSGGPTYYWDSVIGRFTISTDNSKNTLYLQMNSLRAEDTAVYYCYEDRVLSGRPVRYWGQGTLVTVSSGGGGSGGGGSGGGGSEVQLVESGGGLVQPGGSLRLSCAASGRSFSSFQMGWFRQAPGKEREFVAASGWSGGPTYYWDSVIGRFTISTDNSKNTLYLQMNSLRAEDTAVYYCYEDRVLSGRPVRYWGQGTLVTVSSDKTHTCPPCPAPESTRGPSVFLFPPKPKDTLMISRTPEVTCVVVDVSHEDPEVKFNWYVDGVEVHNAKTKPREEQYNSTYRVVSVLTVLHQDWLNGKEYKCKVSNKALPAPIEKTISKAKGQPREPQVCTLPPSRDELTKNQVSLSCAVKGFYPSDIAVEWESNGQPENNYKTTPPVLDSDGSFFLVSKLTVDKSRWQQGNVFSCSVMHEALHNHYTQKSLSLSPGK
chain 2: EVQLVESGGGLVQPGRSLRLSCAASGFTFNTYAMNWVRQAPGKGLEWVARIRSKYNNYATYYADSVKDRFTISRDDSKSIAYLQMNSLKTEDTAVYYCVRHGNFGNSYVSWFAYWGQGTLVTVSSASTKGPSVFPLAPSSKSTSGGTAALGCLVKDYFPEPVTVSWNSGALTSGVHTFPAVLQSSGLYSLSSVVTVPSSSLGTQTYICNVNHKPSNTKVDKKVEPKSCDKTHTCPPCPAPESTRGPSVFLFPPKPKDTLMISRTPEVTCVVVDVSHEDPEVKFNWYVDGVEVHNAKTKPREEQYNSTYRVVSVLTVLHQDWLNGKEYKCKVSNKALPAPIEKTISKAKGQPREPQVYTLPPCRDELTKNQVSLWCLVKGFYPSDIAVEWESNGQPENNYKTTPPVLDSDGSFFLYSKLTVDKSRWQQGNVFSCSVMHEALHNHYTQKSLSLSPGK
chain 3: QTVVTQEPSLTVSPGGTVTLTCRSSTGAVTTSNYANWVQQKPGQAPRGLIGGTNKRAPGVPARFSGSLLGGKAALTLSGVQPEDEAEYFCALWYSNLWVFGGGTKLTVLGQPKAAPSVTLFPPSSEELQANKATLVCLISDFYPGAVTVAWKADSSPVKAGVETTTPSKQSNNKYAASSYLSLTPEQWKSHRSYSCQVTHEGSTVEKTVAPTECS
B3: MAb2 (antibody, V domains shown)
VH: EVQLVESGGGLVQPGGSLRLSCAASGFTFNDYTMDWVRQAPGKGLEWVADVNPNSGSSIYNERFKGRFTLSVDRSKNTLYLQMNSLRAEDTAVYYCARNLGPSFYFDYWGQGTLVTVSS
VL: DIQMTQSPSSLSASVGDRVTITCRASQNINNWLTWYQQKPGKAPKLLIYAASSRQTGVPSRFSGSGSGTDFTLTISSLQPEDFATYYCQQYAKLPVTFGQGTKVEIK
notes: The constant region of MAb2 is not known (human IgG1 or an IgG1 variant); also called 对照单克隆抗体; C6G9+L1A7 (inferred)

These binders were tested against T1, HER2-His (Homo sapiens (Human), UniProt P04626 23-510) (assay: SPR (Biacore X100), antibody captured by anti-Fc on CM5 chip, HER2-His as analyte, single cycle).
T1 construct: Recombinant protein made in HEK293 cells; also called 重组的HER2-His; 重组HER2胞外区D1D2D3部分
B1 gave a Kd of 6.79 nM. Binder B2 has a Kd of 9.69 nM. B3 was tested, and the Kd was 5.31 nM.
